The source of these data is PMC7062783, “Endophilin-A coordinates priming and fusion of neurosecretory vesicles via intersectin” (Nature Communications, 2020).

This assay has as its target T1, recombinant rat endophilin A1 FL (GST fusion) (rat, UniProt O35179 1-352).
T1 construct: endophilin A1 (endophilin 1), rat, full length, cloned into pGEX4T-1; also called endophilin 1
The experiment in a line: pull-down; 50 or 100 ug GST-fusion protein coupled to GST-Bind resin, incubated with 10 ug His6-tagged recombinant protein in 1 ml for 1 h at 4 °C; extensive washes; Coomassie staining and/or SDS-PAGE and immunoblotting. The note with it: both partners purified. (In general: In western blotting, separated proteins are transferred to a membrane and probed.)

T1 sequence (O35179 whole entry, the tested form may be a part): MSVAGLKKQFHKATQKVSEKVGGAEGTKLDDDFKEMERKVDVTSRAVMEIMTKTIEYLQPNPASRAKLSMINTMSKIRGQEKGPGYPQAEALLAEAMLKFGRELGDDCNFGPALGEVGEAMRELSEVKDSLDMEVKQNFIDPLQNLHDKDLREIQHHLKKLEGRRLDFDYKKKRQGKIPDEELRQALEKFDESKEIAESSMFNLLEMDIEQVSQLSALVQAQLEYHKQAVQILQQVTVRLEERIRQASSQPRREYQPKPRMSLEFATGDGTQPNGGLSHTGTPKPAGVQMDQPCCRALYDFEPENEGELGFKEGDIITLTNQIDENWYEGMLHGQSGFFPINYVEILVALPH

B1: recombinant human intersectin-1 SH3B (aa 914-970), His6-tagged (domain or fragment, UniProt Q15811 914-970, looked up)
chain: EGLQAQALYPWRAKKDNHLNFNKNDVITVLEQQDMWWFGEVQGQKGWFPKSYVKLIS
notes: intersectin-1, human, SH3B domain, aa 914-970, cloned in pET28a; also called ITSN-1; ITSN1
Consider B1, for which the binding result is reported as “binds”.
